The target of the assay is Fzd of the reconstituted xWnt8-Fzd complexes (Fzd4 and FZD5) in nanodiscs.

B1: Xenopus laevis Wnt8 (ligand)
chain: AWSVNNFLMTGPKAYLTYSASVAVGAQNGIEECKYQFAWERWNCPESTLQLATHNGLRSATRETSFVHAISSAGVMYTLTRNCSMGDFDNCGCDDSRNGRIGGRGWVWGGCSDNAEFGERISKLFVDGLETGQDARALMNLHNNEAGRLAVKETMKRTCKCHGISGSCSIQTCWLQLAEFRDIGNHLKIKHDQALKLEMDKRKMRSGNSADNRGAIADAFSSVAGSELIFLEDSPDYCLKNISLGLQGTEGRECLQSGKNLSQWERRSCKRLCTDCGLRVEEKKTEIISSCNCKFHWCCTVKCEQCKQVVIKHFCARRERDSNMLNTKRKNRGHRR
Molecule B1 had an occupancy (percent Wnt-bound Fzd after reconstitution) of 30 to 40%.
